{"source": "the supplement of paper PMC9112550", "about": "“Optimization of the antimicrobial peptide Bac7 by deep mutational scanning” (BMC Biology, 2022);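 also: peptides expressed intracellularly from a pBAD plasmid library in pooled LB shake-flask culture, induced with 0.3% L-arabinose, DNA abundance read by NGS, three biological replicates, DESeq2 with apeglm shrinkage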", "data": [{"system": "Escherichia coli TOP10", "assay": "shrunken log2 fold change of peptide-encoding DNA abundance (4.5 h post-induction vs induction); higher = less antimicrobial activity (less host growth inhibition)", "details": "time post-induction: 4.5 h; library: site-saturation at positions 5, 18, 19, 20", "values": [{"sequence": "RRIRMRPPRLPRPRPRPFNYPRP", "shrunken log2 fold change": -0.559}, {"sequence": "RRIRVRPPRLPRPRPRPNYLPRP", "shrunken log2 fold change": -0.102}, {"sequence": "RRIRARPPRLPRPRPRPGFNPRP", "shrunken log2 fold change": 0.252}, {"sequence": "RRIRNRPPRLPRPRPRPPLEPRP", "shrunken log2 fold change": 0.193}, {"sequence": "RRIRPRPPRLPRPRPRPQVIPRP", "shrunken log2 fold change": -0.0452}, {"sequence": "RRIRVRPPRLPRPRPRPWGYPRP", "shrunken log2 fold change": -0.0139}, {"sequence": "RRIRSRPPRLPRPRPRPFIMPRP", "shrunken log2 fold change": -1.09}, {"sequence": "RRIRLRPPRLPRPRPRPDKYPRP", "shrunken log2 fold change": -0.769}, {"sequence": "RRIRMRPPRLPRPRPRPQNGPRP", "shrunken log2 fold change": 0.0258}, {"sequence": "RRIRYRPPRLPRPRPRPVRRPRP", "shrunken log2 fold change": 0.0834}, {"sequence": "RRIRDRPPRLPRPRPRPFQHPRP", "shrunken log2 fold change": -0.202}, {"sequence": "RRIRGRPPRLPRPRPRPGMRPRP", "shrunken log2 fold change": 1.68}, {"sequence": "RRIRARPPRLPRPRPRPKRIPRP", "shrunken log2 fold change": 0.122}, {"sequence": "RRIRLRPPRLPRPRPRPMPWPRP", "shrunken log2 fold change": 0.276}, {"sequence": "RRIRERPPRLPRPRPRPMPPPRP", "shrunken log2 fold change": 0.197}, {"sequence": "RRIRSRPPRLPRPRPRPQISPRP", "shrunken log2 fold change": -0.00331}, {"sequence": "RRIRERPPRLPRPRPRPYPPPRP", "shrunken log2 fold change": -0.942}, {"sequence": "RRIRHRPPRLPRPRPRPDRRPRP", "shrunken log2 fold change": -0.118}, {"sequence": "RRIRRRPPRLPRPRPRPVDDPRP", "shrunken log2 fold change": -0.0484}, {"sequence": "RRIRHRPPRLPRPRPRPTSNPRP", "shrunken log2 fold change": -0.448}, {"sequence": "RRIRARPPRLPRPRPRPAHPPRP", "shrunken log2 fold change": 0.653}, {"sequence": "RRIRERPPRLPRPRPRPKVNPRP", "shrunken log2 fold change": -0.389}, {"sequence": "RRIRYRPPRLPRPRPRPPKIPRP", "shrunken log2 fold change": 0.152}, {"sequence": "RRIRHRPPRLPRPRPRPQCRPRP", "shrunken log2 fold change": -0.0351}, {"sequence": "RRIRIRPPRLPRPRPRPGPQPRP", "shrunken log2 fold change": 0.0436}, {"sequence": "RRIRPRPPRLPRPRPRPHNQPRP", "shrunken log2 fold change": -0.378}, {"sequence": "RRIRRRPPRLPRPRPRPWGCPRP", "shrunken log2 fold change": 0.0658}, {"sequence": "RRIRDRPPRLPRPRPRPMWWPRP", "shrunken log2 fold change": -0.0122}, {"sequence": "RRIRHRPPRLPRPRPRPPAYPRP", "shrunken log2 fold change": 0.181}, {"sequence": "RRIRSRPPRLPRPRPRPYHLPRP", "shrunken log2 fold change": -0.415}, {"sequence": "RRIRNRPPRLPRPRPRPHGLPRP", "shrunken log2 fold change": -0.257}, {"sequence": "RRIRQRPPRLPRPRPRPYEVPRP", "shrunken log2 fold change": -0.31}, {"sequence": "RRIRNRPPRLPRPRPRPQIIPRP", "shrunken log2 fold change": -0.106}, {"sequence": "RRIRTRPPRLPRPRPRPMRHPRP", "shrunken log2 fold change": 0.00372}, {"sequence": "RRIRTRPPRLPRPRPRPLHRPRP", "shrunken log2 fold change": -0.287}, {"sequence": "RRIRGRPPRLPRPRPRPMSSPRP", "shrunken log2 fold change": -0.154}, {"sequence": "RRIRYRPPRLPRPRPRPHHFPRP", "shrunken log2 fold change": -0.288}, {"sequence": "RRIRGRPPRLPRPRPRPVHAPRP", "shrunken log2 fold change": 0.743}, {"sequence": "RRIRFRPPRLPRPRPRPERTPRP", "shrunken log2 fold change": -0.0923}, {"sequence": "RRIRNRPPRLPRPRPRPREKPRP", "shrunken log2 fold change": 0.377}, {"sequence": "RRIRFRPPRLPRPRPRPPLVPRP", "shrunken log2 fold change": 0.23}, {"sequence": "RRIRFRPPRLPRPRPRPSCNPRP", "shrunken log2 fold change": -0.714}, {"sequence": "RRIRMRPPRLPRPRPRPWKFPRP", "shrunken log2 fold change": 0.0673}, {"sequence": "RRIRGRPPRLPRPRPRPDMWPRP", "shrunken log2 fold change": 0.132}, {"sequence": "RRIRCRPPRLPRPRPRPANHPRP", "shrunken log2 fold change": -0.282}, {"sequence": "RRIRQRPPRLPRPRPRPILSPRP", "shrunken log2 fold change": 0.0165}, {"sequence": "RRIRSRPPRLPRPRPRPPRDPRP", "shrunken log2 fold change": 1.34}, {"sequence": "RRIRRRPPRLPRPRPRPWQDPRP", "shrunken log2 fold change": 0.0293}, {"sequence": "RRIRCRPPRLPRPRPRPAKWPRP", "shrunken log2 fold change": 0.235}, {"sequence": "RRIRWRPPRLPRPRPRPQVDPRP", "shrunken log2 fold change": 1.5}, {"sequence": "RRIRHRPPRLPRPRPRPFFDPRP", "shrunken log2 fold change": -0.642}, {"sequence": "RRIRMRPPRLPRPRPRPWMCPRP", "shrunken log2 fold change": -0.01}, {"sequence": "RRIRLRPPRLPRPRPRPDGIPRP", "shrunken log2 fold change": -0.0391}, {"sequence": "RRIRWRPPRLPRPRPRPNPWPRP", "shrunken log2 fold change": 0.265}, {"sequence": "RRIRARPPRLPRPRPRPMVKPRP", "shrunken log2 fold change": -0.00629}, {"sequence": "RRIRARPPRLPRPRPRPDKQPRP", "shrunken log2 fold change": -0.0794}, {"sequence": "RRIRMRPPRLPRPRPRPAEYPRP", "shrunken log2 fold change": 0.0354}, {"sequence": "RRIRYRPPRLPRPRPRPHSLPRP", "shrunken log2 fold change": -0.184}, {"sequence": "RRIRIRPPRLPRPRPRPAVFPRP", "shrunken log2 fold change": 0.103}, {"sequence": "RRIRMRPPRLPRPRPRPAWKPRP", "shrunken log2 fold change": 0.14}, {"sequence": "RRIRPRPPRLPRPRPRPQRWPRP", "shrunken log2 fold change": 0.156}, {"sequence": "RRIRGRPPRLPRPRPRPTHEPRP", "shrunken log2 fold change": 1.34}, {"sequence": "RRIRRRPPRLPRPRPRPTCAPRP", "shrunken log2 fold change": 0.502}, {"sequence": "RRIRARPPRLPRPRPRPPSHPRP", "shrunken log2 fold change": 0.351}, {"sequence": "RRIRIRPPRLPRPRPRPKWGPRP", "shrunken log2 fold change": -0.00761}, {"sequence": "RRIRNRPPRLPRPRPRPKGVPRP", "shrunken log2 fold change": 2.97}, {"sequence": "RRIRQRPPRLPRPRPRPILNPRP", "shrunken log2 fold change": -0.098}, {"sequence": "RRIRMRPPRLPRPRPRPYSDPRP", "shrunken log2 fold change": -0.329}, {"sequence": "RRIRCRPPRLPRPRPRPHKSPRP", "shrunken log2 fold change": 0.139}, {"sequence": "RRIRWRPPRLPRPRPRPPHSPRP", "shrunken log2 fold change": 0.218}, {"sequence": "RRIRIRPPRLPRPRPRPEHRPRP", "shrunken log2 fold change": -0.051}, {"sequence": "RRIRSRPPRLPRPRPRPINLPRP", "shrunken log2 fold change": -0.00701}, {"sequence": "RRIRIRPPRLPRPRPRPGPAPRP", "shrunken log2 fold change": 0.383}, {"sequence": "RRIRDRPPRLPRPRPRPTEGPRP", "shrunken log2 fold change": -0.0161}, {"sequence": "RRIRERPPRLPRPRPRPHEIPRP", "shrunken log2 fold change": -0.0168}]}]}
